Assay results as given in article PMC5973702.

Biological target: human voltage-gated K+ channel Kv1.3 with C-terminal FLAG/10Xhis tag, expressed in Tetrahymena thermophila (human) (UniProt P22001)
Experiment: fluorescence polarisation

UniProt P22001, sequence (P22001 whole entry): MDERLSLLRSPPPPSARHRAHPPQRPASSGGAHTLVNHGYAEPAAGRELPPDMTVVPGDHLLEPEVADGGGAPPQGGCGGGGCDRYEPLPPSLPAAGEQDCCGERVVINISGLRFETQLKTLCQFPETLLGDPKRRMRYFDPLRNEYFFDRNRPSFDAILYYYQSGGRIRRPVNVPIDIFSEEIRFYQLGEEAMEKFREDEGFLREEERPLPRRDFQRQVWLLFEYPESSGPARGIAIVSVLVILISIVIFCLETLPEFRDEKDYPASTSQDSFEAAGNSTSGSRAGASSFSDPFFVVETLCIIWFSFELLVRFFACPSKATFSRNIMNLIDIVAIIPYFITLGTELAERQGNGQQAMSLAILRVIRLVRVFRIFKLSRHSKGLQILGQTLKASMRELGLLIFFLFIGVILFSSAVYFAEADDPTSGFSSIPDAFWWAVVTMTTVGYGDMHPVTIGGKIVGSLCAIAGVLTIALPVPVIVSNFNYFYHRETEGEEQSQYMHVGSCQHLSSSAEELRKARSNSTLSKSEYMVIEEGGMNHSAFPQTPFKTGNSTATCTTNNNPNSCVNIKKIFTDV

## FAM-ShK (Fluorescein 6-carbonyl-labelled Stichodactyla toxin) (peptide)
  Kd: 11.5 nM
